Measurements from patent US20190352335A1, “BRAIN TARGETING LONG-ACTING PROTEIN CONJUGATE” (HANMI PHARM. CO., LTD., priority 2016, published 2019).

Experiment: In vitro specific enzyme activity of idursulfase conjugate (4MU fluorescence)
Format: biochemical
Conditions: substrate 4MU-α-idopyraA-2, 37° C. 4 hours, then α-iduronidase 37° C. 24 hours; FIG. 5
Experimental: To examine the presence of any change in specific activity of idursulfase according to the preparation of idursulfase-10 K PEG-Fc-BTP22 conjugate, an in vitro experiment for specific activity of enzymes was performed, 4-Methylumbelliferyl α-L-idopyranosiduronic acid-2-sulfate sodium salt (4MU-α-idopyraA-2), which is known as an enzyme substrate for idursulfase, was reacted with idursulfase β and IDS-Fc-BTP22 at 37° C. for 4 hours, and then, reacted with α-iduronidase, which is a secondary reaction enzyme, at 37° C. for 24 hours. The enzyme activity of 4-methylumbelliferone (4 MU), the final product, was measured by the measurement of the fluorescence of the corresponding substance (FIG. 5).
In particular, the values of enzyme activity were calculated in terms of specific activity per converted rate of weight (μg).

B1: idursulfase (protein, UniProt P22304 34-455; P22304 456-550, looked up)
Iduronate 2-sulfatase 42 kDa …: TDALNVLLIIVDDLRPSLGCYGDKLVRSPNIDQLASHSLLFQNAFAQQAVCAPSRVSFLTGRRPDTTRLYDFNSYWRVHAGNFSTIPQYFKENGYVTMSVGKVFHPGISSNHTDDSPYSWSFPPYHPSSEKYENTKTCRGPDGELHANLLCPVDVLDVPEGTLPDKQSTEQAIQLLEKMKTSASPFFLAVGYHKPHIPFRYPKEFQKLYPLENITLAPDPEVPDGLPPVAYNPWMDIRQREDVQALNISVPYGPIPVDFQRKIRQSYFASVSYLDTQVGRLLSALDDLQLANSTIIAFTSDHGWALGEHGEWAKYSNFDVATHVPLIFYVPGRTASLPEAGEKLFPYLDPFDSASQLMEPGRQSMDLVELVSLFPTLAGLAGLQVPPRCPVPSFHVELCREGKNLLKHFRFRDLEEDPYLPG
Iduronate 2-sulfatase 14 kDa …: NPRELIAYSQYPRPSDIPQWNSDKPSLKDIKIMGYSIRTIDYRYTVWVGFNPDEFLANFSDIHAGELYFVDSDPLQDHNMYNDSQGGDLFQLLMP
notes: purified type of iduronate-2-sulfatase (Shire, Ireland), approximately 72 kDa
  enzyme activity (specific activity per weight of idursulfase part): 23.4 ± 1.94 nmol/min/µg
